# Source: publication PMC11850232
# Several values for one entry are separate records, joined by “and”; a condition that tells them apart may be missing. Equal entries are not always repeated.
# Legend:
# [1] = biological target: Tilapia Lake virus nucleoprotein (TiLV-NP) (Tilapia Lake virus); test: SEC-MALS; apo TiLV-NP injected at 5 and 3 mg/ml; Superdex 200 Increase 10/300 GL; 50 mM HEPES pH 8, 150 mM NaCl, 2 mM TCEP
# [2] = biological target: Tilapia Lake virus nucleoprotein (TiLV-NP) (Tilapia Lake virus); test: cryo-EM structure
# [3] = biological target: Tilapia Lake virus nucleoprotein (TiLV-NP) (Tilapia Lake virus); test: mass photometry; apo TiLV-NP at 25 nM; 50 mM HEPES pH 8, 150 mM NaCl, 2 mM TCEP
# [4] = biological target: Tilapia Lake virus nucleoprotein (TiLV-NP) (Tilapia Lake virus); test: mass photometry; RNA-bound TiLV-NP (40-mer vRNA loop) at 25 nM TiLV-NP; 50 mM HEPES pH 8, 150 mM NaCl, 2 mM TCEP
# [5] = biological target: Tilapia Lake virus nucleoprotein (TiLV-NP) (Tilapia Lake virus); test: as above; remark: listed apart in the source
substance,measurement,setting,value
Tilapia Lake virus nucleoprotein (TiLV-NP) (natural protein),stoichiometry N,[1],3 and 4
same,stoichiometry N,[2],4 and 5 and 6
same,stoichiometry N,[3],3 and 4 and 5
same,stoichiometry N,[4],3 and 4
same,stoichiometry N,[5],5 and 6
